Reference: patent US20210087522

Key:
[1] = target: T1, APACP, ACP of the glycolipid PKS in Anabaena
T1 chain: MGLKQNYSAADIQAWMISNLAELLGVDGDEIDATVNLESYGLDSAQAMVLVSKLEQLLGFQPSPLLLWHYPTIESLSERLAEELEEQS

[2] = target: T2, FisPCP, PCP of the shinorine gene cluster from Fischerella
T2 chain: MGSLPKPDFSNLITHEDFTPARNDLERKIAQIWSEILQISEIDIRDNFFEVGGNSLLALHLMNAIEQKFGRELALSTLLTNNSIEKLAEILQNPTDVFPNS

[3] = target: AprACP, ACP of the apratoxin (PK/NRP) gene cluster in Lyngbya sp.
[4] = target: T3, MACP, CP of an uncharacterized NRP/PK gene cluster from M. aeruginosa NIES843
T3 chain: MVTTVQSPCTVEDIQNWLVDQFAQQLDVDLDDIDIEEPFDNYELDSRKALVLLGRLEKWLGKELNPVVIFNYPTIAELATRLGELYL

[5] = target: T4, SsPCP, PCP of a thaxtomin cluster from Streptomyces scabiei 87.22
T4 chain: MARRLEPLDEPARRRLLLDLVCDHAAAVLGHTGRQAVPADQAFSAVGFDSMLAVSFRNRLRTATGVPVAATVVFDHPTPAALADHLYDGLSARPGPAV

[6] = target: T5, APNPCP, CP of an uncharacterized NRP/PK gene cluster from Anabaena
T5 chain: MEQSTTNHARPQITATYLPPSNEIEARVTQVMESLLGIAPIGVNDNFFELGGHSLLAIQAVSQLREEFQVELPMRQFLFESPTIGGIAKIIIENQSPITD

[7] = target: T6, AFACP, ACP of the FAS from Anabaena
T6 chain: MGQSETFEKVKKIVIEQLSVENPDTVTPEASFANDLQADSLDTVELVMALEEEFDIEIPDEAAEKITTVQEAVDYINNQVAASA

[8] = target: T7, FNPCP, CP of an uncharacterized NRP gene cluster from Fischerella
T7 chain: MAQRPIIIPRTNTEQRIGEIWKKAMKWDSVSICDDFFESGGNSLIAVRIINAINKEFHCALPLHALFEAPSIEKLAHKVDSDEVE

[9] = target: ScACP, ACP of a putative concanamycin gene cluster from Streptomyces coelicolor A(3)2
[10] = target: T8, FNsACP, homolog of ArCPNp from Fischerella
T8 chain: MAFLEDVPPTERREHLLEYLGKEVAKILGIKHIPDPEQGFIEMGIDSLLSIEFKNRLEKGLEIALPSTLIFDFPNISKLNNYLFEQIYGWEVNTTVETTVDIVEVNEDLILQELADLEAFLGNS

[11] = target: T9, SFACP, ACP of the FAS from Synechocystis
T9 chain: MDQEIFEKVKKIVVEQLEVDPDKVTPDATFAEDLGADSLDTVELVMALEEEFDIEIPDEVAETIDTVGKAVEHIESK

B1: MPPT, Sfp-like phosphopantetheinyl transferase (PPTase) from Microcystis aeruginosa NIES843 (protein)
chain: MFISTDEVHLYFISLDPSGDRLETLASLLSEDEIIRANRYHFPEHKRRFLVARGCLREILGSYLAISPEKIEFIYSERGKPSINYQLQFNLSHSEEMAICGLTLTARIGVDLEKMRQMKDLDSLTKRFFCAREHELVEKSAEKEKLFFQLWTAKEAYLKAVGTGISGGLDRVEVGLNPLKLDNVAGEWQLWTAAIGDNYRATVVIEGSDRVIKTFGLSDL
[1]
  Km: 23.1 µM
  kcat: 0.353 s⁻¹
  kcat/Km: 15000 M⁻¹ s⁻¹
  phosphopantetheinylation of CP (apo to holo), LC-MS: APPT, AvPPT, MPPT and Sfp functionalized all substrates
  relative activity (most active PPTase = 100%): MPPT showed >84% relative activity toward all nine cyanobacterial CPs
[2]
  Km: 7.2 µM
  kcat: 0.0317 s⁻¹
  kcat/Km: 5000 M⁻¹ s⁻¹
  phosphopantetheinylation of CP (apo to holo), LC-MS: APPT, AvPPT, MPPT and Sfp functionalized all substrates
  relative activity (most active PPTase = 100%): MPPT showed >84% relative activity toward all nine cyanobacterial CPs
[3]
  Km: 9.1 µM
  kcat: 0.173 s⁻¹
  kcat/Km: 18300 M⁻¹ s⁻¹
  phosphopantetheinylation of CP (apo to holo), LC-MS: APPT, AvPPT, MPPT and Sfp functionalized all substrates
  relative activity (most active PPTase = 100%): MPPT showed >84% relative activity toward all nine cyanobacterial CPs
[4]
  Km: 4.9 µM
  kcat: 0.07 s⁻¹
  kcat/Km: 15000 M⁻¹ s⁻¹
  phosphopantetheinylation of CP (apo to holo), LC-MS: APPT, AvPPT, MPPT and Sfp functionalized all substrates
  relative activity (most active PPTase = 100%): MPPT showed >84% relative activity toward all nine cyanobacterial CPs including the highest activity on MACP
[5]
  Km: 9.1 µM
  kcat: 0.118 s⁻¹
  kcat/Km: 11700 M⁻¹ s⁻¹
  phosphopantetheinylation of CP (apo to holo), LC-MS: APPT, AvPPT, MPPT and Sfp functionalized all substrates
  relative activity (most active PPTase = 100%): This enzyme also displayed a modest relative activity toward ScACP and SsPCP
[6]
  Km: 9.5 µM
  kcat: 0.0317 s⁻¹
  kcat/Km: 3330 M⁻¹ s⁻¹
  phosphopantetheinylation of CP (apo to holo), LC-MS: APPT, AvPPT, MPPT and Sfp functionalized all substrates
  relative activity (most active PPTase = 100%): MPPT showed >84% relative activity toward all nine cyanobacterial CPs
[7]
  Km: 6.9 µM
  kcat: 0.14 s⁻¹
  kcat/Km: 20000 M⁻¹ s⁻¹
  phosphopantetheinylation of CP (apo to holo), LC-MS: APPT, AvPPT, MPPT and Sfp functionalized all substrates
  relative activity (most active PPTase = 100%): MPPT showed >84% relative activity toward all nine cyanobacterial CPs
[8]
  Km: 7.2 µM
  kcat: 0.16 s⁻¹
  kcat/Km: 21700 M⁻¹ s⁻¹
  phosphopantetheinylation of CP (apo to holo), LC-MS: APPT, AvPPT, MPPT and Sfp functionalized all substrates
  relative activity (most active PPTase = 100%): MPPT showed >84% relative activity toward all nine cyanobacterial CPs
[9]
  Km: 12.4 µM
  kcat: 0.0433 s⁻¹
  kcat/Km: 3330 M⁻¹ s⁻¹
  phosphopantetheinylation of CP (apo to holo), LC-MS: APPT, AvPPT, MPPT and Sfp functionalized all substrates
  relative activity (most active PPTase = 100%): This enzyme also displayed a modest relative activity toward ScACP and SsPCP
[10]
  Km: 8.3 µM
  kcat: 0.035 s⁻¹
  kcat/Km: 5000 M⁻¹ s⁻¹
  phosphopantetheinylation of CP (apo to holo), LC-MS: APPT, AvPPT, MPPT and Sfp functionalized all substrates
  relative activity (most active PPTase = 100%): MPPT showed >84% relative activity toward all nine cyanobacterial CPs
[11]
  Km: 3.2 µM
  growth of Synechocystis mutant with the SPPT gene replaced: demonstrated their in vivo function as activating SFACP for the synthesis of essential fatty acids
  kcat: 0.02 s⁻¹
  kcat/Km: 6670 M⁻¹ s⁻¹
  phosphopantetheinylation of CP (apo to holo), LC-MS: APPT, AvPPT, MPPT and Sfp functionalized all substrates
  relative activity (most active PPTase = 100%): MPPT showed >84% relative activity toward all nine cyanobacterial CPs

B2: APPT, Sfp-like phosphopantetheinyl transferase (PPTase) from Anabaena sp. PCC7120 (protein)
chain: MLQHTWLPKPPNLTLLSDEVHLWRIPLDQPESQLQDLAATLSSDELARANRFYFPEHRRRFTAGRGILRSILGGYLGVEPGQVKFDYESRGKPILGDRFAESGLLFNLSHSQNLALCAVNYTRQIGIDLEYLRPTSDLESLAKRFFLPREYELLRSLPDEQKQKIFFRYWTCKEAYLKATGDGIAKLEEIEIALTPTEPAKLQTAPAWSLLELVPDDNCVAAVAVAGFGWQPKFWHY
[1]
  Km: 10 µM
  kcat: 0.283 s⁻¹
  kcat/Km: 26700 M⁻¹ s⁻¹
  phosphopantetheinylation of CP (apo to holo), LC-MS: APPT, AvPPT, MPPT and Sfp functionalized all substrates
[2]
  Km: 7.1 µM
  kcat: 0.0383 s⁻¹
  kcat/Km: 5000 M⁻¹ s⁻¹
  phosphopantetheinylation of CP (apo to holo), LC-MS: APPT, AvPPT, MPPT and Sfp functionalized all substrates
[3]
  Km: 7.8 µM
  kcat: 0.238 s⁻¹
  kcat/Km: 30000 M⁻¹ s⁻¹
  phosphopantetheinylation of CP (apo to holo), LC-MS: APPT, AvPPT, MPPT and Sfp functionalized all substrates
[4]
  Km: 7.9 µM
  kcat: 0.0617 s⁻¹
  kcat/Km: 8330 M⁻¹ s⁻¹
  phosphopantetheinylation of CP (apo to holo), LC-MS: APPT, AvPPT, MPPT and Sfp functionalized all substrates
[5]
  Km: 7.4 µM
  kcat: 0.127 s⁻¹
  kcat/Km: 16700 M⁻¹ s⁻¹
  phosphopantetheinylation of CP (apo to holo), LC-MS: APPT, AvPPT, MPPT and Sfp functionalized all substrates
[6]
  Km: 1.6 µM
  kcat: 0.0167 s⁻¹
  kcat/Km: 10000 M⁻¹ s⁻¹
  phosphopantetheinylation of CP (apo to holo), LC-MS: APPT, AvPPT, MPPT and Sfp functionalized all substrates
[7]
  Km: 6.8 µM
  kcat: 0.195 s⁻¹
  kcat/Km: 28300 M⁻¹ s⁻¹
  phosphopantetheinylation of CP (apo to holo), LC-MS: APPT, AvPPT, MPPT and Sfp functionalized all substrates
[8]
  Km: 12.1 µM
  kcat: 0.203 s⁻¹
  kcat/Km: 16700 M⁻¹ s⁻¹
  phosphopantetheinylation of CP (apo to holo), LC-MS: APPT, AvPPT, MPPT and Sfp functionalized all substrates
[9]
  Km: 14.1 µM
  kcat: 0.09 s⁻¹
  kcat/Km: 6670 M⁻¹ s⁻¹
  phosphopantetheinylation of CP (apo to holo), LC-MS: APPT, AvPPT, MPPT and Sfp functionalized all substrates
[10]
  Km: 8.4 µM
  kcat: 0.0367 s⁻¹
  kcat/Km: 5000 M⁻¹ s⁻¹
  phosphopantetheinylation of CP (apo to holo), LC-MS: APPT, AvPPT, MPPT and Sfp functionalized all substrates
[11]
  Km: 2.8 µM
  kcat: 0.0267 s⁻¹
  kcat/Km: 10000 M⁻¹ s⁻¹
  phosphopantetheinylation of CP (apo to holo), LC-MS: APPT, AvPPT, MPPT and Sfp functionalized all substrates
